Results as given in patent US20030186334A1, “KTS-disintegrins” (Temple University - Of the Commonwealth System of Higher …, priority 2001, published 2003).
pIC50: −log10 of the molar value.

How the values were obtained:
α9β1 integrin = molecular target: T1, α9β1 integrin (Homo sapiens, UniProt P05556+Q13797); test: adhesion of SW480α9 cells to VCAM-1; type: cell-based; conditions: α9β1, VCAM-1
T1 construct: expressed in transfected cells; host or cells: SW480α9 cells

α1β1 integrin = molecular target: T2, α1β1 integrin (Homo sapiens, UniProt P05556+P56199); test: adhesion of α1K562 cells to immobilized collagen IV; type: cell-based; conditions: α1K562 cells, α1β1, collagen IV
T2 construct: expressed in transfected cells; host or cells: α1K562 cells
Description: Collagen IV (0.2 μg/well) in 0.02 M acetic acid was immobilized by incubation overnight at 4° C. on a 96-well plate. Plates were then blocked with 1% (w/v) BSA (bovine serum albumin) in Hank's Balanced Salt Solution (HBSS) containing 3 mM Mg^2+ at room temperature for 1-2 hours to prevent cells from non-specifically binding to the plates. α1K562 cells were labeled by incubation with 12.5 μM 5-chloromethylfluorescein diacetete (CMFDA) in HBSS for 15 minutes at 37° C. CMFDA labeled α1K562 cells were then pelleted, washed and resuspended in HBSS buffer containing 3 mM Mg^2+ and 1% BSA. […] The plates were washed three times with HBSS containing 3 mM Mg^2+ and 1% (w/v) BSA to remove unbound cells. Bound cells were lysed using 0.5% (v/v) Triton X-100 in H2O. Fluorescent CMFDA released by lysis of adherent cells in a given well was read using a Cytofluor 2350 fluorescence plate reader.
Adhesive ligands for the selected integrins consisted of collagen IV (0.2 μg/well), collagen I, fibronectin, or vascular cell adhesion molecule-1 (VCAM-1). Adhesive ligands in 0.02 M acetic acid were immobilized overnight at 4° C. on a 96-well plate. Plates were then blocked with 1% (w/v) BSA (bovine serum albumin) in Hank's Balanced Salt Solution (HBSS) containing 3 mM Mg^2+ at room temperature for 1-2 hours to prevent cells from non-specifically binding to the plates. α1K562, α2K562, K562, A5, and Jurkat cells expressing the α1β1, α2β1, α5β1, αIIbβ3, and α4β1 integrins respectively were labeled by incubation with 12.5 μM 5-chloromethylfluorescein diacetate (CMFDA) in HBSS for 15 minutes at 37° C. CMFDA labeled cells were then pelleted, washed and resuspended in HBSS buffer containing 3 mM Mg^2+ and 1% (w/v) BSA. […] Plates were then incubated at 37° C. for 30 minutes as indicated in Table 5 and washed three times with HBSS containing 3 mM Mg^2+ and 1% (w/v) BSA to remove unbound cells. Bound cells were lysed using 0.5% (v/v) Triton X-100 in H2O. Fluorescent CMFDA released by lysis of adherent cells in a given well was read using a Cytofluor 2350 fluorescence plate reader.
The effect of obtustatin, viperisrastatin, echistatin, and eristostatin on the binding of selected integrins to their adhesive ligands was evaluated using the cell adhesion assay described in Example 6. The integrin-expressing cells, integrins and corresponding adhesive ligands, and the results of the cell adhesion assay are shown in Table 6.

HMVECs = test: endothelial cell tube formation assay on Matrigel; type: cell-based, human; conditions: 60 μM, 24 hours
Description: An endothelial cell tube formation assay was performed to assess the anti-angiogenic effect of obtustatin in vitro as follows. Twenty-four well plates were coated with a 1:2 dilution of Matrigel™ in EBM-2 medium, which was polymerized by incubation for 1 hour at 37° C. HMVECs (1.2×10^5 cells per well) were added onto the polymerized Matrigel™ (BD Biosciences, Lexington, Ky.) in EBM-2 medium, in the absence or presence of 60 μM obtustatin. The plates were incubated for 24 hours at 37° C., and analyzed for the extent of tube formation by observation with an inverted microscope, using a magnification of 10× ocular and 10× objective.

α1β1 and α2β1 integrins = test: adhesion of unblocked MV3 cells to immobilized collagen IV; type: cell-based, human
Description: The α1β1 integrin specific inhibitory effect of obtustatin was confirmed using human melanoma MV3 cells. MV3 cells express both the α1β1 and α2β1 integrins. MV3 cells adhere strongly to collagen IV through α1β1 and α2β1 integrin-mediated interactions.
Collagen IV (0.2 μg/well) in 0.02 M acetic acid was immobilized overnight at 4° C. on a 96-well plate. Plates were then blocked with 1% (w/v) BSA (bovine serum albumin) in Hank's Balanced Salt Solution (HBSS) containing 3 mM Mg^2+ at room temperature for 1-2 hours to prevent cells from non-specifically binding to the plates. […] were labeled by incubation with 12.5 μM 5-chloromethylfluorescein diacetete (CMFDA) in HBSS for 15 minutes at 37° C. CMFDA labeled MV3 cells were then pelleted, washed and resuspended in HBSS buffer containing 3mM Mg^2+ and 1% (w/v) BSA. 1×10^5 cells were then added to each well in the presence (10 μg/ml) or absence of the α1 integrin subunit specific AJH10 mAb and α2 integrin subunit specific P1E6 mAb as indicated in FIG. 5. Obtustatin was added at the concentrations indicated in FIG. 5 simultaneously with the mAbs. The plates were then incubated at 37° C. for 30 minutes and washed three times with HBSS containing 3 mM Mg^2+ and 1% (w/v) BSA to remove unbound cells. […] Fluorescent CMFDA released by lysis of adherent cells in a given well was read using a Cytofluor 2350 fluorescence plate reader. […]

T2 sequence (P56199 29-1179): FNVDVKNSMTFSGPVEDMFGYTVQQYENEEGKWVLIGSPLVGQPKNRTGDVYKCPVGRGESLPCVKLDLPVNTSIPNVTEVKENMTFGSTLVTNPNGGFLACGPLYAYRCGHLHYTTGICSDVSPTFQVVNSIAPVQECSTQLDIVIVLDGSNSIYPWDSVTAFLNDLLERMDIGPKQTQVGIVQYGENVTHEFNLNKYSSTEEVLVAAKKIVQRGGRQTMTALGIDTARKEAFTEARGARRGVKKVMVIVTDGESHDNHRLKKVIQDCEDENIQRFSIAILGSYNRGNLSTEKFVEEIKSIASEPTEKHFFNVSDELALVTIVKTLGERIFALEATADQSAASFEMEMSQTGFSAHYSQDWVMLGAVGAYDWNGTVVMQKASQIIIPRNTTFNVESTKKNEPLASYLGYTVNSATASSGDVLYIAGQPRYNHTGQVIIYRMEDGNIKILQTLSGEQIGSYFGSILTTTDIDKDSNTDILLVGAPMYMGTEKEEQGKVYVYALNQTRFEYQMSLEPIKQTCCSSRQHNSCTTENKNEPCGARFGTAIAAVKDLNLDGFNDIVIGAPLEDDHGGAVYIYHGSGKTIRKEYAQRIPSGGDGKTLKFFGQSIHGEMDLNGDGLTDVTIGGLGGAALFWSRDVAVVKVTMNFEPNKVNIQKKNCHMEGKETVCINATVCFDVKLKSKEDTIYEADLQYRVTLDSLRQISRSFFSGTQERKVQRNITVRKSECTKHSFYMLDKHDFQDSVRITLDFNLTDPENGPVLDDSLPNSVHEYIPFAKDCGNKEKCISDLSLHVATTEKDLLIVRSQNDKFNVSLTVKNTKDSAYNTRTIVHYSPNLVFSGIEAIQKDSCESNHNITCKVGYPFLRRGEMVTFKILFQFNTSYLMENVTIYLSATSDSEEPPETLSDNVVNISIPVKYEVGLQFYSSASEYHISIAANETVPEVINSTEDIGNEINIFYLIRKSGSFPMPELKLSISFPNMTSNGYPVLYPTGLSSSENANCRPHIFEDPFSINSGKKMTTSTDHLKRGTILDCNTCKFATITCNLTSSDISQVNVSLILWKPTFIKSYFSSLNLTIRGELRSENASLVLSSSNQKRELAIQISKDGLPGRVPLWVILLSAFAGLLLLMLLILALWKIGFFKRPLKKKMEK
T2 sequence (P05556 21-798): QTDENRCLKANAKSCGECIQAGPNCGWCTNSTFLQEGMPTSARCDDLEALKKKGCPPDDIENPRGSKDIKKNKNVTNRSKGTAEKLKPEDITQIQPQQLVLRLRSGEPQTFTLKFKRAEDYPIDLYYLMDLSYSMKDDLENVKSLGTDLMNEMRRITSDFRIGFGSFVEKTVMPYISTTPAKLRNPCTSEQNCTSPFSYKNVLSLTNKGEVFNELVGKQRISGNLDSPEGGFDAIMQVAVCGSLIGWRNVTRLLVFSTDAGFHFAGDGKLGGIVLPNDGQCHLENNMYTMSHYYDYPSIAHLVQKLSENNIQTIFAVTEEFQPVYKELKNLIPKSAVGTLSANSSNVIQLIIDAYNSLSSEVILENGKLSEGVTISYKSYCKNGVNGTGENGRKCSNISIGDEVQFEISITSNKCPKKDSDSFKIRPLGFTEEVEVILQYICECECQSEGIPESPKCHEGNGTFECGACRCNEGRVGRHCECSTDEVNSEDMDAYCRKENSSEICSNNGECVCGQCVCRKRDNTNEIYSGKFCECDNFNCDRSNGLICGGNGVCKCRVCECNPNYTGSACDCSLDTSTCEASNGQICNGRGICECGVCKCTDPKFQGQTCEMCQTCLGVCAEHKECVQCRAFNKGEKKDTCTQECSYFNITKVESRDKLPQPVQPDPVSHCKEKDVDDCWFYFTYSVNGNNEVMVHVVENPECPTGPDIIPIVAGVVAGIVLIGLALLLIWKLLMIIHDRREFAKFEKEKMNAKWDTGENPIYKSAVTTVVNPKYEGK
T1 sequence (Q13797 30-1035): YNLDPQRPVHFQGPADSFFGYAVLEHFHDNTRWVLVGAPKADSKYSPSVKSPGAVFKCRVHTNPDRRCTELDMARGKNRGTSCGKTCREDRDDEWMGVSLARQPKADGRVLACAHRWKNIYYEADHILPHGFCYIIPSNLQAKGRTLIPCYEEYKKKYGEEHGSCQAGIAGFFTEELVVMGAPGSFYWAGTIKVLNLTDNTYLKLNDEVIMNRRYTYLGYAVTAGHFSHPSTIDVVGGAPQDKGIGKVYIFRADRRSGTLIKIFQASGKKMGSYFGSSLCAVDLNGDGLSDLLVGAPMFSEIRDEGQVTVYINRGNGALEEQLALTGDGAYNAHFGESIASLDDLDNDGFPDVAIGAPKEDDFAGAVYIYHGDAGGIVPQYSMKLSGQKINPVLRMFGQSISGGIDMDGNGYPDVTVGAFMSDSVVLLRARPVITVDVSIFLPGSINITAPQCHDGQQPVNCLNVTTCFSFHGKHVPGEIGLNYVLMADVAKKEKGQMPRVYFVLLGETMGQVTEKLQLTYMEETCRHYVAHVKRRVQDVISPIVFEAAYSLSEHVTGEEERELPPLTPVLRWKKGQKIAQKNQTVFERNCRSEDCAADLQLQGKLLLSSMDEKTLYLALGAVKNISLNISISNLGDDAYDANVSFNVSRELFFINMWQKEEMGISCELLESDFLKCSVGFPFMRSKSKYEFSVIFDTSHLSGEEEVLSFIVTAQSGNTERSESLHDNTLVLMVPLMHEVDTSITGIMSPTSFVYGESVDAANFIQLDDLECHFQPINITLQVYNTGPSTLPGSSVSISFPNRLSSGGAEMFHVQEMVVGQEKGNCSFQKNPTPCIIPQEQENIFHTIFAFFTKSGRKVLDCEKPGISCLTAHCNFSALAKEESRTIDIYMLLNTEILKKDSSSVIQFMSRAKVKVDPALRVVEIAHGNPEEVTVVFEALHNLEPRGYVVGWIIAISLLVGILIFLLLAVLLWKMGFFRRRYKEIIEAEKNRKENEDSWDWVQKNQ
T1 sequence (P05556 21-798): as the sequence (P05556 21-798) above

For “Obtustatin (CTTGPCCRQCKLKPAGTTCWKTSLTSHYCTGKSCDCPLYPG)”, the pIC50 (α9β1 integrin) was under 5.00, the pIC50 (α1β1 integrin) was 8.70 and the “formation of HMVEC tubes on Matrigel” value (HMVECs) was “completely abolished”. The “inhibition of adhesion of MV3 cells to collagen IV” value (α1β1 and α2β1 integrins) was “comparatively insensitive”.
